Molecular target: calmodulin, purified (UniProt P0DP23 1-149)
Assay: pull-down

B1: GST fusion of α1C aa 1581–1690 with EEDAAA in place of TVGKFY (Mut6) (domain or fragment)
chain: not shown
**Q.** Does B1 bind?
**A.** Result: binds

— paper PMC1343528 (The Journal of Cell Biology, 2005)
